Data as given in FireProtDB (doi:10.1021/acs.biochem.6b01187).

Settings: Equus caballus, CD; for denaturant m value / denaturant midpoint (higher = more stable) / unfolding free energy: 22 °C, GdnHCl; for Tm / change of melting temperature, mutant - wild type (higher = more stable) / unfolding enthalpy (calorimetric): Thermal, transition: 2, reversible: yes (>83%)
[1] = pH 4.5, sodium acetate buffer 10 mM, NaCl 100 mM, structure 1HRC
[2] = pH 7.4, sodium phosphate buffer 100 mM, structure 1HRC
[3] = pH 4.5, sodium acetate buffer 10 mM, NaCl 100 mM
[4] = pH 7.4, sodium phosphate buffer 100 mM

Chain of Cytochrome c T50V, P00004 (P00004 whole entry T50V): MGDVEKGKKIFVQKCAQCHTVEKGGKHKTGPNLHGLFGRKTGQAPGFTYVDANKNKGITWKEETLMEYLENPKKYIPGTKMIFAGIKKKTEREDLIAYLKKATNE
Chain of Cytochrome c M81A, P00004 (P00004 whole entry M81A): as the sequence (P00004 whole entry T50V) above, with V50T, M81A counted along it
Chain of Cytochrome c wild type, P00004 (P00004 whole entry): as the sequence (P00004 whole entry T50V) above, with V50T counted along it
Chain of Cytochrome c Y68R|M81A, P00004 Y68R M81A (P00004 whole entry Y68R/M81A): as the sequence (P00004 whole entry T50V) above, with V50T, Y68R, M81A counted along it

Substance	denaturant m value [1] [kcal/mol/M]	denaturant midpoint (higher = more stable) [1] [M]	unfolding free energy [1] [kcal/mol]	Tm [1] [°C]	change of melting temperature, mutant - wild type (higher = more stable) [1] [°C]	unfolding enthalpy (calorimetric) [1] [kcal/mol]	denaturant m value [2] [kcal/mol/M]	denaturant midpoint (higher = more stable) [2] [M]	unfolding free energy [2] [kcal/mol]	Tm [2] [°C]	change of melting temperature, mutant - wild type (higher = more stable) [2] [°C]	unfolding enthalpy (calorimetric) [2] [kcal/mol]	other results
Cytochrome c M81A, P00004	2.77	2.6	2.77	76	5	83.4	2.46	2.71	6.67	84	-0.1	85.3	–
Cytochrome c T50V, P00004	1.6	2.5	3.99	72	1	82.5	2.68	2.7	7.22	86	1.9	83.9	–
Cytochrome c Y68R|M81A, P00004 Y68R M81A	2.29	1.4	3.2	55	-16	78.4	2.46	1.7	4.18	71	-13.1	82.2	–
Cytochrome c wild type, P00004	–	–	–	–	–	–	–	–	–	–	–	–	denaturant m value [3]: 2.34 kcal/mol/M; denaturant midpoint (higher = more stable) [3]: 2.6 M; unfolding free energy [3]: 6 kcal/mol; Tm [3]: 71 °C; unfolding enthalpy (calorimetric) [3]: 49 kcal/mol; denaturant m value [4]: 2.75 kcal/mol/M; denaturant midpoint (higher = more stable) [4]: 2.7 M; unfolding free energy [4]: 7.43 kcal/mol; Tm [4]: 84.1 °C; unfolding enthalpy (calorimetric) [4]: 86 kcal/mol
